Source: PMC12796366

Columns and labels:
[1] = biological target: EGFP (Aequorea victoria); test: AUC; sedimentation velocity, 0.5 mg/mL of the isolated fluorescent protein, 25 mM phosphate buffer pH 6.2 or 7.4, 150 mM NaCl, 1% glycerol, 1 mM MgCl2, 0.5 mM beta-mercaptoethanol (legend also: 50 mM KCl), 42,000 rpm, 20 °C, interference detection, c(s) fit with Sedfit
[2] = biological target: EYFP (Aequorea victoria); test: as above

| stoichiometry N [1] | stoichiometry N [2] | Substance |
| --- | --- | --- |
| 2 | – | EGFP |
| – | 2 | EYFP |
